For this assay, the target named is truncated MoPrP(89–230) (mouse, UniProt P04925 89-230). The experiment in a line: ELISA. In general terms: In an ELISA, binding on a coated surface is turned into a signal by an enzyme label.

B1: mouse (Mo) Dpl (26–155) (domain or fragment)
chain: ARGIKHRFKWNRKVLPSSGGQITEARVAENRPGAFIKQGRKLDIDFGAEGNRYYAANYWQFPDGIYYEGCSEANVTKEMLVTSCVNATQAANQAEFSREKQDSKLHQRVLWRLIKEICSAKHCDFWLERG
With B1, the binding result is listed as “binds”.

(Values after article PMC3399532 (Prion, 2012).)
